Reference: patent EP4703388A1 (Jiangsu Hengrui Pharmaceuticals Co., Ltd., dated 2024)

Tests used:
[1] = target: T1, human tissue factor (TF) on MDA-MB-231, NCI-H358 and HCT116 cells (human, UniProt P13726 33-295); assay: flow cytometry on MDA-MB-231 cells
T1 construct: whole, on cells; also called TF antigen; CD142

[2] = target: T2, human TF ECD-His (hTF-his) (human, UniProt P13726 33-251); assay: SPR Biacore T200, antibody on Protein A chip, TF-His as analyte, 1:1 model
T2 construct: also called bio-hTF-his; human TF-His protein

[3] = target: T3, cyno TF ECD-His (cTF-his) (monkey (cyno)); assay: as above
T3 construct: also called bio-cTF-his; monkey TF-His protein
T3 chain: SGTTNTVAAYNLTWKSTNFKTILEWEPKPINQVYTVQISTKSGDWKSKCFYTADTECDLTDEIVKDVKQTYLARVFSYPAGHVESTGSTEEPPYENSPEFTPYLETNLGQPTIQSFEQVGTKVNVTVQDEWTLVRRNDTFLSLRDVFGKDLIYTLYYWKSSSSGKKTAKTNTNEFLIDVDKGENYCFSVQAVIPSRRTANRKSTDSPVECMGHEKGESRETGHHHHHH

[4] = target: T1, human tissue factor (TF) on MDA-MB-231, …; assay: flow cytometry on H358 cells

| Binder | EC50 [1] [nM] | Kd [2] [nM] | koff [2] [s⁻¹] | kon [2] [M⁻¹ s⁻¹] | Kd [3] [nM] | koff [3] [s⁻¹] | kon [3] [M⁻¹ s⁻¹] | EC50 [4] [nM] |
| --- | --- | --- | --- | --- | --- | --- | --- | --- |
| hu67-11 (antibody, human IgG1, kappa, V domains shown) VH: EVQLQESGPGLVKPSQTLSLTCTVSGFSLTNYGVNWIRQPPGKGLEWIGVIWSRGNTDYNAAFISRVTISKDTSKNQVSLKLSSVTAADTAVYYCARKDAVVATDALDYWGQGTTVTVSS VL: DIQMTQSPSSLSASVGDRVTITCKASQDVSTAVAWYQQKPGKAPKLLIYSTSYRYTGVPSRFSGSGSGTDFTFTISSLQPEDIATYYCQQHYSTPYTFGGGTKVEIKR | 26.3 | 16.5 | 0.000675 | 40900 | 8.95 | 0.000243 | 27100 | – |
| hu67Y118 (antibody, human IgG1, kappa, V domains shown) VH: EVQLQESGPGLVKPSQTLSLTCTVSGFSLTNYGVNWIRQSPGKGLEWIGVIWSRGNTDYNAAFKSRVTISKDTSKNQVSLKLSSVTAADTAVYYCARKDAIVATDALDYWGQGTTVTVSS VL: DIQMTQSPSSLSASVGDRVTITCKASQDVQTAVAWYQQKPGKAPKLLIYSTHYRYTGVPSRFSGSGSGTDFTFTISSLQPEDIATYYCLQLIGVPHTFGGGTKVEIKR | 7.05 | – | – | – | – | – | – | – |
| hu67-4 (antibody, human IgG1, kappa, V domains shown) VH: EVQLQESGPGLVKPSQTLSLTCTVSGFSLTNYGVNWIRQPPRKGLEWIGVIWSRGNTDYNAAFISRVTISKDNSKSQVSLKLSSVTAADTAVYYCARKDAVVATDALDYWGQGTTVTVSS VL: DIVMTQSPKSLAVSLGERATINCKASQDVSTAVAWYQQKPGQPPKLLIYSTSYRYTGVPDRFSGSGSGTDFTLTISSLQAEDVAVYYCQQHYSTPYTFGGGTKVEIKR | 18 | 18.9 | 0.000766 | 40500 | 15.5 | 0.000523 | 33700 | 90.5 |
| hu10H10-29 (antibody, V domains shown, H11+L1; Full-length IgG) VH: EVQLVQSGSELKKPGASVKVSCKASGYTFITYWIEWVKQRPGQGLEWMGDILPYSGSTNYNENFKGRATFSADTSVSTAYLQISSLKAEDTAVYYCARSGYYGNSGFAYWGQGTLVTVSS VL: DIQMTQSPSSLSASVGDRVTITCKSSQSLLSSGNQKNYLTWYQQKPGKAPKLLIYWASTRESGVPSRFSGSGSGTDFTLTISSLQPEDFATYYCQNDYTYPLTFGQGTKLEIK | 1.09 | 0.545 | 7.45e-05 | 137000 | 0.642 | 9.83e-05 | 153000 | 0.45 |
| hu10H10-33 (antibody, V domains shown, H7+L3; Full-length IgG) VH: EVQLVQSGSELKKPGASVKVSCKASGYTFITYWIEWVKQRPGQGLEWMGDILPGSGSTNYNENFKGRATFSADTSVSTAYLQISSLKAEDTAVYYCARSGYYGNSGFAYWGQGTLVTVSS VL: DIQMTQSPSSLSASVGDRVTITCKSSQSLLSSGNQKNYLTWYQQKPGKAPKLLIYWASTREEGVPSRFSGSGSGTDFTLTISSLQPEDFATYYCQNDYTYPLTFGQGTKLEIK | 1.09 | – | – | – | – | – | – | 0.96 |
| hu10H10-36 (antibody, V domains shown, H10+L3; Full-length IgG) VH: EVQLVQSGSELKKPGASVKVSCKASGYTFIEYWIEWVKQRPGQGLEWMGDILPGSGSTNYNENFKGRATFSADTSVSTAYLQISSLKAEDTAVYYCARSGYYGNSGFAYWGQGTLVTVSS VL: DIQMTQSPSSLSASVGDRVTITCKSSQSLLSSGNQKNYLTWYQQKPGKAPKLLIYWASTREEGVPSRFSGSGSGTDFTLTISSLQPEDFATYYCQNDYTYPLTFGQGTKLEIK | 2.14 | – | – | – | – | – | – | 0.96 |
| chimeric antibody CH67 (antibody, human IgG1, kappa, V domains shown, Murine 67# variable regions + human constant regions) VH: QVQLKQSGPGLVQPSQSLSITCIVSGFSLTNYGVNWVRQSPRKGLEWLGVIWSRGNTDYNAAFISRLIISKDNSKSQVFLKMNRLQADDTAIYYCARKDAVVATDALDYWGQGTSVTVSS VL: DIVMTQSHKFMSTSLGDRVSITCKASQDVSTAVAWYQQKPGQSPKLLIYSTSYRYTGVPDRFTGSGSGTDFTFTISSVQAEDLAVYYCQQHYSTPYTFGGGTKLEIKR | 16.5 | 36.7 | 0.000969 | 26400 | 16 | 0.000473 | 29500 | 55.9 |

Results, then the binder that gave them:

| EC50 [1] [nM] | Kd [2] [nM] | koff [2] [s⁻¹] | kon [2] [M⁻¹ s⁻¹] | Kd [3] [nM] | koff [3] [s⁻¹] | kon [3] [M⁻¹ s⁻¹] | EC50 [4] [nM] | Binder |
| --- | --- | --- | --- | --- | --- | --- | --- | --- |
| 1.84 | 23.2 | 0.00949 | 409000 | 23.5 | 0.00767 | 327000 | – | chimeric antibody CH310 (antibody, human IgG1, kappa, V domains shown, Murine 310# variable regions + human constant regions) VH: EVQLQQSGPELVKPGASLKISCKASGYSFTGYYMNWVKQSPEKSLEWIGEINPSTGGSTYNQKFKAKATLTVDQSSNTAYMQLKSLTSEDSAVYYCARRELGGPFGYWGQGTPVTVSA VL: SIVMTQTPKFLLVSSGDRVTITCKASQSVSNGIAWYQQKPGQSPKLLIYFASNRYTGVPDRFTGSGYGTDFTFTISTVQAEDLAVYFCQQDYSSPWTFGGGTKLEIKR |
| 1.12 | – | – | – | – | – | – | 0.99 | hu10H10-34 (antibody, V domains shown, H8+L3; Full-length IgG) VH: EVQLVQSGSELKKPGASVKVSCKASGRTFITYWIEWVRQRPGQGLEWMGDILPGSGSTNYNENFKGRATFSADTSVSTAYLQISSLKAEDTAVYYCARSGYYGNSGFAYWGQGTLVTVSS VL: DIQMTQSPSSLSASVGDRVTITCKSSQSLLSSGNQKNYLTWYQQKPGKAPKLLIYWASTREEGVPSRFSGSGSGTDFTLTISSLQPEDFATYYCQNDYTYPLTFGQGTKLEIK |
| 1.07 | – | – | – | – | – | – | 0.55 | hu10H10-40 (antibody, V domains shown, H14+L3 (printed bu10H10-40); Full-length IgG; also called bu10H10-40) VH: EVQLVQSGSELKKPGASVKVSCKASGYTFITYWIEWVRQRPGQGLEWMGDILPGSGWTNYNENFKGRAVFSADTSVSTAYLQISSLKAEDTAVYYCARSGYYGNSGFAYWGQGTLVTVSS VL: DIQMTQSPSSLSASVGDRVTITCKSSQSLLSSGNQKNYLTWYQQKPGKAPKLLIYWASTREEGVPSRFSGSGSGTDFTLTISSLQPEDFATYYCQNDYTYPLTFGQGTKLEIK |
| 1.07 | – | – | – | – | – | – | 0.35 | hu10H10-37 (antibody, V domains shown, H11+L3; Full-length IgG) VH: EVQLVQSGSELKKPGASVKVSCKASGYTFITYWIEWVKQRPGQGLEWMGDILPYSGSTNYNENFKGRATFSADTSVSTAYLQISSLKAEDTAVYYCARSGYYGNSGFAYWGQGTLVTVSS VL: DIQMTQSPSSLSASVGDRVTITCKSSQSLLSSGNQKNYLTWYQQKPGKAPKLLIYWASTREEGVPSRFSGSGSGTDFTLTISSLQPEDFATYYCQNDYTYPLTFGQGTKLEIK |
| 1.1 | – | – | – | – | – | – | 0.42 | hu10H10-39 (antibody, V domains shown, H13+L3 (printed bu10H10-39); Full-length IgG; also called bu10H10-39) VH: EVQLVQSGSELKKPGASVKVSCKASGYTFITYWIEWVKQRPGQGLEWMGDILPGSGWTNYNENFKGRATFSADTSVSTAYLQISSLKAEDTAVYYCARSGYYGNSGFAYWGQGTLVTVSS VL: DIQMTQSPSSLSASVGDRVTITCKSSQSLLSSGNQKNYLTWYQQKPGKAPKLLIYWASTREEGVPSRFSGSGSGTDFTLTISSLQPEDFATYYCQNDYTYPLTFGQGTKLEIK |
| 1.14 | – | – | – | – | – | – | 0.81 | hu10H10-38 (antibody, V domains shown, H12+L3; Full-length IgG) VH: EVQLVQSGSELKKPGASVKVSCKASGYTFITYWIEWVKQRPGQGLEWMGDILPGHGSTNYNENFKGRATFSADTSVSTAYLQISSLKAEDTAVYYCARSGYYGNSGFAYWGQGTLVTVSS VL: DIQMTQSPSSLSASVGDRVTITCKSSQSLLSSGNQKNYLTWYQQKPGKAPKLLIYWASTREEGVPSRFSGSGSGTDFTLTISSLQPEDFATYYCQNDYTYPLTFGQGTKLEIK |
| 1.09 | 0.47 | 7.34e-05 | 156000 | 0.375 | 6.77e-05 | 181000 | 0.41 | hu10H10-53 (antibody, V domains shown, H11+L6; Full-length IgG) VH: EVQLVQSGSELKKPGASVKVSCKASGYTFITYWIEWVKQRPGQGLEWMGDILPYSGSTNYNENFKGRATFSADTSVSTAYLQISSLKAEDTAVYYCARSGYYGNSGFAYWGQGTLVTVSS VL: DIQMTQSPSSLSASVGDRVTITCKSSQSLLSSSNQKNYLTWYQQKPGKAPKLLIYWASTREEGVPSRFSGSGSGTDFTLTISSLQPEDFATYYCQNDYTYPLTFGQGTKLEIK |
| 1.09 | – | – | – | – | – | – | 0.79 | hu10H10-35 (antibody, V domains shown, H9+L3; Full-length IgG) VH: EVQLVQSGSELKKPGASVKVSCKASGYTFRTYWIEWVKQRPGQGLEWMGDILPGSGSTNYNENFKGRATFSADTSVSTAYLQISSLKAEDTAVYYCARSGYYGNSGFAYWGQGTLVTVSS VL: DIQMTQSPSSLSASVGDRVTITCKSSQSLLSSGNQKNYLTWYQQKPGKAPKLLIYWASTREEGVPSRFSGSGSGTDFTLTISSLQPEDFATYYCQNDYTYPLTFGQGTKLEIK |
| 1.12 | – | – | – | – | – | – | 1.02 | hu10H10-57 (antibody, V domains shown, H2+L5; Full-length IgG) VH: EVQLVQSGSELKKPGASVKVSCKASGYTFITYWIEWVRQRPGQGLEWMGDILPGSGSTNYNENFKGRAVFSADTSVSTAYLQISSLKAEDTAVYYCARSGYYGNSGFAYWGQGTLVTVSS VL: DIQMTQSPSSLSASVGDRVTITCKSSQSLLDSGNQKNYLTWYQQKPGKAPKLLIYWASTREEGVPSRFSGSGSGTDFTLTISSLQPEDFATYYCQNDYTYPLTFGQGTKLEIK |
| 1.43 | – | – | – | – | – | – | 1.09 | hu10H10-58 (antibody, V domains shown, H2+L6; Full-length IgG) VH: EVQLVQSGSELKKPGASVKVSCKASGYTFITYWIEWVRQRPGQGLEWMGDILPGSGSTNYNENFKGRAVFSADTSVSTAYLQISSLKAEDTAVYYCARSGYYGNSGFAYWGQGTLVTVSS VL: DIQMTQSPSSLSASVGDRVTITCKSSQSLLSSSNQKNYLTWYQQKPGKAPKLLIYWASTREEGVPSRFSGSGSGTDFTLTISSLQPEDFATYYCQNDYTYPLTFGQGTKLEIK |
